Data from patent US20220119517A1.

Legend:
[1] = target: human Claudin18.2 (CLDN18.2), full length, on cells (human); assay: FACS on NUGC4 cells
[2] = target: human Claudin18.2 (CLDN18.2), full length, on cells (human); assay: cell-based or functional assay
[3] = target: human Claudin18.1 (CLDN18.1), full length, on cells (human) (UniProt P56856); assay: FACS on CHO-K1-CLDN18.1 cells

MFI (CLDN18.2) [1]: 93 MFI | in-vitro ADCC activity, Jurkat-CD16A/NF luciferase reporter, EC50 [2]: 13.5 nM | in-vitro ADCC activity, Jurkat-CD16A/NF luciferase reporter, Top [2]: 6190 | MFI (CLDN18.1) [3]: 219 MFI
Substance: human IgG1, kappa isotype control antibody
ADCC cytotoxicity by LDH method, PBMC effectors, Max (%) [2]: 52%
